{"source": "patent US5756343", "about": "“Cell stress transcriptional factors” (The United States of America as represented by the …, dated 1992)", "key": {"[1]": {"molecular_target": "T1, Drosophila HSF expressed in Xenopus oocytes (Drosophila melanogaster) (UniProt P22813)", "T1 sequence": "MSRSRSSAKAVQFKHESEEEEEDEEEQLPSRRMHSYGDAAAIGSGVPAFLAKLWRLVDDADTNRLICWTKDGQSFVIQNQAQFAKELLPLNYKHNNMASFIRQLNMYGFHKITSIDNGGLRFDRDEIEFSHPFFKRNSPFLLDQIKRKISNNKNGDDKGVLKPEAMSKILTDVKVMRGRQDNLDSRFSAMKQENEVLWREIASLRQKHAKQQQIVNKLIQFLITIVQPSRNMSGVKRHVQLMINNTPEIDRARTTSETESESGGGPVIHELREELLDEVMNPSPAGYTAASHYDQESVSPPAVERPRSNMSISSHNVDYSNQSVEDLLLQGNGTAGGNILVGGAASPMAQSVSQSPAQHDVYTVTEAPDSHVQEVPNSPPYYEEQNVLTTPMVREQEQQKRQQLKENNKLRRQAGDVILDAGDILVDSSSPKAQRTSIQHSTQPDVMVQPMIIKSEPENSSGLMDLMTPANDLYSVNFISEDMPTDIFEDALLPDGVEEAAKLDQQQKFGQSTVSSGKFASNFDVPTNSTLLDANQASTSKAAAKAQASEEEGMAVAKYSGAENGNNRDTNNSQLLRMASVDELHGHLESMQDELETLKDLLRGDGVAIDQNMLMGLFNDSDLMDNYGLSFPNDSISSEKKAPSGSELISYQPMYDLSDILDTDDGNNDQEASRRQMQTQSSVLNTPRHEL", "experiment": "EMSA", "conditions": "oocytes 36 C 10 min vs 18 C"}, "[2]": {"molecular_target": "human HSF (HuHSF) (Homo sapiens) (UniProt Q00613)", "sequence (Q00613 whole entry)": "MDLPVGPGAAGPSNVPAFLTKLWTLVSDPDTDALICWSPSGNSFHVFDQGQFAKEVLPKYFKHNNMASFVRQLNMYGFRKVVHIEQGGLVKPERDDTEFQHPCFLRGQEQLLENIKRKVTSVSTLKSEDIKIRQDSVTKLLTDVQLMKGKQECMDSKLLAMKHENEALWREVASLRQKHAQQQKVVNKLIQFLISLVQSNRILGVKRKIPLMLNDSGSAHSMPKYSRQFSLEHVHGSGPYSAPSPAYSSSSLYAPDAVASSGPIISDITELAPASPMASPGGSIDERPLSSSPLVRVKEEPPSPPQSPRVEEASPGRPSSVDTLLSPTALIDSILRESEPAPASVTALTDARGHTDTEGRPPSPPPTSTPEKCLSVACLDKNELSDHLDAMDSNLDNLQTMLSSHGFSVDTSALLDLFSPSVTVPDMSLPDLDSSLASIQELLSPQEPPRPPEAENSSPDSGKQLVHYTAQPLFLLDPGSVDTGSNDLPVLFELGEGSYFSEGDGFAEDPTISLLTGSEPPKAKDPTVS", "conditions": "in vitro transcription, Drosophila embryo extract"}, "[3]": {"molecular_target": "T2, Drosophila HSF full length (pHSF WT) (Drosophila melanogaster) (UniProt P22813)", "T2 sequence": "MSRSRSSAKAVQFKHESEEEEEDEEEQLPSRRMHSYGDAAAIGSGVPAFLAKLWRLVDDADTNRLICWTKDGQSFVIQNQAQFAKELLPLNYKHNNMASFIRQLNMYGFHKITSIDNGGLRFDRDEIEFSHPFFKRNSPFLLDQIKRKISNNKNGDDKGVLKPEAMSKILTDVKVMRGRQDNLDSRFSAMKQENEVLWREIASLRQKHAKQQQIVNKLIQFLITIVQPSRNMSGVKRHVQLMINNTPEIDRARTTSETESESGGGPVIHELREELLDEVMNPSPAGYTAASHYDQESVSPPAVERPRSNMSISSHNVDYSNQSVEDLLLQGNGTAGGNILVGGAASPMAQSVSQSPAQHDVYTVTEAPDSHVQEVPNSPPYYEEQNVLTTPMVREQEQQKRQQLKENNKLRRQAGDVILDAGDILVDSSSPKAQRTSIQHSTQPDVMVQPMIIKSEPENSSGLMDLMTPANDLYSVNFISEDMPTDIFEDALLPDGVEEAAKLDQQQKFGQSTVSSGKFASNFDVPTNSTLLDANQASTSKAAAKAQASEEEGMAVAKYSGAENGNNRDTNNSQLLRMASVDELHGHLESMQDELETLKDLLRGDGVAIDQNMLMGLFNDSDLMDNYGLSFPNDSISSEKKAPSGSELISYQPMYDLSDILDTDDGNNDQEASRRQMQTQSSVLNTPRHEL", "conditions": "in vitro transcription, Drosophila embryo extract; scale: fold transcription vs template lacking HSEs"}, "[4]": {"molecular_target": "the molecule itself", "experiment": "self-association: pore exclusion limit electrophoresis on a nondenaturing gradient gel, purified HSF from E. coli", "method": "The gel was stained with Coomassie Blue. […] (B) Pore exclusion limit analysis of the HSF:^32P-HSE complex. 3 µl of Drosophila SL-2 cell cytosol (lanes 1,2) and 0.5 µl of an extract *E. coli* expressing HSF (lanes 3,4) were heat shocked (+) in vitro at 34° C. or incubated at 0° C. (−) for 10 min. The samples were incubated for 10 min with ^32P-labeled HSE tinder standard gel shift conditions, and electrophoresed on a nondenaturing, 3–12% polyacrylamide gradient gel until the limit of migration. The gel was stained with Coomassie Blue, dried and subjected to autoradiography. The positions of marker proteins are indicated. (C) Glutaraldehyde cross-linking of cloned HSF. Purified HSF (2 µg/10 µl) was treated for 5 min at room temperature with glutaraldehyde as indicated. After quenching, about 1 µg of cross-linked HSF was separated on a 4–6% SDS polyacrylamide gel, and silver stained. The minor polypeptides below the 105 kD HSF protein probably represent degradation products. […] Cross-linked products were analyzed by SDS gel electrophoresis as above.\nEXAMPLE 5 Recombinant Drosophila HSF Expressed in *E. coli*. Associates as a Hexamer in Solution The apparent molecular mass of recombinant HSF, purified from *E. coli* extracts, was determined to be about 105 KD by SDS polyacrylamide gel electrophoresis (see FIG. 6)."}, "Drosophila HSF 1-241": {"molecular_target": "T3, Drosophila HSF 1-241 (Drosophila melanogaster, UniProt P22813 SEQ:1-241)", "T3 chain": "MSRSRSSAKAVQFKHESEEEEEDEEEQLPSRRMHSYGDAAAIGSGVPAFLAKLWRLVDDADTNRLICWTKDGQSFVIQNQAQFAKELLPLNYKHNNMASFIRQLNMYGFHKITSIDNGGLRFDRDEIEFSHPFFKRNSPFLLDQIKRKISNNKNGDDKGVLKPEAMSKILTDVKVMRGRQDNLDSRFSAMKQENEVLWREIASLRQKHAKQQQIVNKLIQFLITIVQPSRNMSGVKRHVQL", "experiment": "footprint", "conditions": "tags: E. coli BL21(DE3) extract; label: 32P 5' end", "from_the_text": "(§1) Figure 7A: FIGS. 7A, 7B, and 7C represent the deletion analysis of HSF. (A) Schematic drawing of full-length HSF open reading frame (pHSF WT) and three deletion mutants PHSF 1-367, 1-241, and 1-163. All numbers refer to amino acid positions. The open bars represent HSF coding sequences; the shaded regions A–D represent sequences conserved between Drosophila and yeast HSF. The solid boxes indicate the φ10 promoter (T_7), the Shine-Delgarno (SD) sequence, and the transcription terminator (T) of the expression vector. (B) SDS polyacrylamide gel analysis of wild-type and mutant HSF polypeptides. Mutants were expressed in BL21 (DE3) in the presence of ^35S-methionine (20 µCi/ml). 0.1 ml of culture was precipitated and the pellet was denatured at 100° C. in 10 µl of Laemmli sample buffer. Samples were electrophoresed on a 15% polyacrylamide gel and visualized by fluorography. The arrows pointing left indicate HSF polypeptides. A 26 kD protein (arrowhead) was also labeled in all samples, including *E. coli* transformed with the expression vector alone. (C) DNase I protection analysis of HSF mutants. A labeled fragment from the hsp70 promoter was incubated with the indicated amounts of wild-type or mutant HSF proteins. Footprinting reactions were performed essentially as described in FIG. 3C. Figure 7B: Figure 7C: […]"}, "Drosophila HSF 1-367": {"molecular_target": "T4, Drosophila HSF 1-367 (Drosophila melanogaster, UniProt P22813 SEQ:1-367)", "T4 chain": "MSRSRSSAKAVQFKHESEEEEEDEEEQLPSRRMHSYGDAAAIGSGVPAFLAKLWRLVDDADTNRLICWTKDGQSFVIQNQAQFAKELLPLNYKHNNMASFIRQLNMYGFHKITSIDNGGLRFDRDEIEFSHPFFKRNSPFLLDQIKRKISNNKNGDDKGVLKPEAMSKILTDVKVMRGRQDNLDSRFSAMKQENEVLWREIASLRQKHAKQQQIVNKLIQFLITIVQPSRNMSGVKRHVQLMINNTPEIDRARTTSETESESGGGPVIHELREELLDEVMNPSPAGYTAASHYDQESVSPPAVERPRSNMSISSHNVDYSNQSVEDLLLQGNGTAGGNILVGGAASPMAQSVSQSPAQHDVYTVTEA", "experiment": "footprint", "conditions": "tags: E. coli BL21(DE3) extract; label: 32P 5' end", "from_the_text": "as §1"}, "Drosophila HSF 1-163": {"molecular_target": "T5, Drosophila HSF 1-163 (Drosophila melanogaster, UniProt P22813 SEQ:1-163)", "T5 chain": "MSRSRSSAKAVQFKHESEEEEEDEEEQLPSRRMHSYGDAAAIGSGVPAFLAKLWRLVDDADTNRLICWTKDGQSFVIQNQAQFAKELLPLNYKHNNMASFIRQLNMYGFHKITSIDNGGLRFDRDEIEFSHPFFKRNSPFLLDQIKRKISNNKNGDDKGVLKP", "experiment": "footprint; estimated from protein concentration for about 50% binding", "conditions": "tags: E. coli BL21(DE3) extract; label: 32P 5' end", "method": "as §1, with “All” for “Figure 7A: FIGS. 7A, 7B, and 7C represent the deletion analysis of HSF. (A) Schematic drawing of full-length HSF open reading frame (pHSF WT) and three deletion mutants PHSF 1-367, 1-241, and 1-163. All”"}}, "data": [{"molecule": "synthetic HSE with three -GAA- repeats in alternating orientation", "values": [{"measurement": "binding signal (fold increase on heat shock)", "setting": "[1]", "result": 5}]}, {"molecule": "phsp70(-50)HSE2 template", "values": [{"measurement": "activity (fold transcription stimulation)", "setting": "[2]", "result": 6}, {"measurement": "activity", "setting": "[3]", "result": 7}]}, {"molecule": "recombinant Drosophila heat shock factor (HSF), full-length, expressed in E. coli (pHSFWT) or translated in vitro in rabbit reticulocyte lysate (other) MSRSRSSAKAVQFKHESEEEEEDEEEQLPSRRMHSYGDAAAIGSGVPAFLAKLWRLVDDADTNRLICWTKDGQSFVIQNQAQFAKELLPLNYKHNNMASFIRQLNMYGFHKITSIDNGGLRFDRDEIEFSHPFFKRNSPFLLDQIKRKISNNKNGDDKGVLKPEAMSKILTDVKVMRGRQDNLDSRFSAMKQENEVLWREIASLRQKHAKQQQIVNKLIQFLITIVQPSRNMSGVKRHVQLMINNTPEIDRARTTSETESESGGGPVIHELREELLDEVMNPSPAGYTAASHYDQESVSPPAVERPRSNMSISSHNVDYSNQSVEDLLLQGNGTAGGNILVGGAASPMAQSVSQSPAQHDVYTVTEAPDSHVQEVPNSPPYYEEQNVLTTPMVREQEQQKRQQLKENNKLRRQAGDVILDAGDILVDSSSPKAQRTSIQHSTQPDVMVQPMIIKSEPENSSGLMDLMTPANDLYSVNFISEDMPTDIFEDALLPDGVEEAAKLDQQQKFGQSTVSSGKFASNFDVPTNSTLLDANQASTSKAAAKAQASEEEGMAVAKYSGAENGNNRDTNNSQLLRMASVDELHGHLESMQDELETLKDLLRGDGVAIDQNMLMGLFNDSDLMDNYGLSFPNDSISSEKKAPSGSELISYQPMYDLSDILDTDDGNNDQEASRRQMQTQSSVLNTPRHEL", "values": [{"measurement": "binding result", "setting": "[4]", "result": "binds"}]}, {"molecule": "hsp70 promoter (-100 to +10 printed) (dsDNA) DNA 1: AAACGGCACACTGTTCTCGTTGCTTCGAGAGAGCGCGCCTCGAATGTTCGCGAAAAGAGCGCCGGAGTATAAATAGAGGCGCTTCGTCGACGGAGCGTCAATTCAATTCA DNA 2: TGAATTGAATTGACGCTCCGTCGACGAAGCGCCTCTATTTATACTCCGGCGCTCTTTTCGCGAACATTCGAGGCGCGCTCTCTCGAAGCAACGAGAACAGTGTGCCGTTT", "values": [{"measurement": "binding signal", "setting": "Drosophila HSF 1-241", "result": "≤ 2 fold difference vs full length"}, {"measurement": "binding signal", "setting": "Drosophila HSF 1-367", "result": "≤ 2 fold difference vs full length"}, {"measurement": "binding signal", "setting": "Drosophila HSF 1-163", "result": "50 fold lower affinity vs full length"}]}]}
